Data taken from the PETadex activity labels.

Substrate: BHET
Conditions: 120 h

Protein | plate clearing
unnamed (protein) MLLVSANALSYTPAPVANPAPIAAPAPCQDCDFNRGPNPTNSSVERLGPYSVATQRVSSSVSGFGGGTIHYPTNIAGKVGAIAVVPGFVSPESSIRWWGPQLASHGFVVITIATNSIFDQPSSRERQLGRALDYVINQTNSSGTAISGLVDTNRLGAMGWSMGGGGSLRLANGGRLSAVIPLAPWNEGASGFSQLTTPTLVVACENDLIAPVRVHASPFYNVIPNTTDKAFLEVNNGSHSCANGGGVNGGLLSKYGVSWMKRFIDEDTRYQQFLCGPNHSANPAISEYRDTCNY | not clears the plate
unnamed (protein) MTTSNTRTLARLALAAAALLLSAAAQAQANPYQRGPDPTAASLEATAGPFAVATTKVASPSGYGGGTVYYPTTTEGPFGLIAVAPGFTETQSAISWWGPRLASHGFVVITIDTKSTLDQPASRAKQLMAALNYVVALSQTSSSPFYGKVDASRQGVMGHSMGGGGTLEAARDNPTLKAAIPLAPWNTTKNFSKVTVPTLIIACENDAIAPVSSHASPFYDSLPSSLDKAYLELKGADHFCTNSSATNKTVIGKYGVAWMKRFVDNDTRYSPFLCGAPHQADLSGSVISRYKDNCPY | not clears the plate
unnamed (protein) MQRKRYNTITNRARASLLAGVGLAFFSVLAQADVLFQENFDSSLGQFTSTGSVSVTTSGARMAGSFGGTDGAITSSPISTVGFTGITLTLTRTTTGLDSGEAGIAEFSTNGSTYTVIQSLQTASGAVTLNLPATAGGQSSLRLRFRVNASSSTEYFTVDSIRLEGTPGSGGGGGGTNPYQRGPAPTTSSLDASRGPFSVGSRTVSDTQVSGYDGGTLWYPTNTSEGPFAAIAIIPGFLSSEGSIREWGPRLASWGFVVITVETLTYGDLPPSRRDQLIAAMNDVLMWSDQSGHPIYGKVDKTRQALMGWSMGGGGTLLGLQENPTRFKAGIGLAPWNSTETFTSSIRQPVLIFACESDIIAPVASHAYPFYRNMPTTNKKAFAEVNNGDHFCANDPRNNSGRLGRYGVSWMKRFLDDDTRFTQFLCGTHSTWTFSRYLSTCPY | not clears the plate
unnamed (protein) MKFEPLPGASPAVQPSMRFVLKRAGMATALLLSSFAAQAQVALVQENFSAGLGNFTAVGTVNTSDGSARLQGCYGCTDAVITSNAISTQGFTNLSLSFDRATAGLDTGEAGTAEFSTDGANWTIVESTRTTTTGRVSFALPASAAAQAALRLRFRINASLSSETYVVDNIQLTGTPGDPGDPDDPGANPFAKGPNPTAELLESSTGPFTYSSTVVARSAASGYGGGTIYHPTNVAGPFAAIAISPGYTGTKSTMSWWGQRLASHGFVVITIDTNSTTDQPSSRATQLMASLRQLVTFSNTSSHPIYRKVDPNRLGVMGHSMGGGGTLIAARDNPTLKAAIPLAPWSSVGNTNFSSVQVPTLVVACEADAIAPVAQHASPFYNSISGSTRKAYIEMNNGDHLCVMTGNSYTRIMGKYGVSWMKRFMDNDTRYSPFLCGAPHQADLSNAQVSEYRENCPY | clears the plate (z > 3 vs empty vector)
unnamed (protein) MKTTQFLRTAVCTFTLSFSLTAFSGGGGGSSDNDGNLPTPNSCTSNCGFEIGPNPNLNFVRASQGPLPVSTTTVASSVDGFGGGTIYYPSNISDEVAAIAISPGFTARQSSIAWWGPILASHGFVVITIDTNSRFDQPDSRGRQLDSSLSYLINESNRSNSPISGRVDDSRLAAMGHSMGGGGSLRSAARNRLSAAMPLAPFRVGGNDFDQIRVPTMIMACENDVVAPVGVHARPFYNRIPGSTDKVLLEINNGSHSCANGESSGNRPLLSTYGVSWMKRFLDKDRRYNQFLCGPNHEANSQISDFRDTCNF | not clears the plate
unnamed (protein) MRARTRLTALAAGLTLALGAPAATAATADQAQPAASASVEHGPAPTKESIGVDGPYKVASKKAPIDLKRSFYGGTIYYPADAGKGETYGTVVTMPGFLEPGAVMDLVAKRLASHGFVVMRAEALTPFSIPLVRAQAVLSAQKVLHADADLAPIMDTERTALVGHSMGGGGVLHAAAMSEQDAVIPIHPWAQTIFPLVKEPTLTIGGLLDNVAPMVEYTLPIYASIGSETKGLFTDLAGTHWAGLVDNKVIQGRILSFVKLHVDGDTRYEQFVCAPAEKGFTYKSPC | not clears the plate
unnamed (protein) MKSFLKKIYLGTGMLLVSANALSYTPAPTPNPTPITTPVECQDDCDFSRGPNPTSSSIEGVGPYSVATQNVPSSVSGFGGGTIHYPRGISGTVGAIAVVPGFVSPESSIIWWGPRLASHGFVVITIATNSIFDQPASREAQLGRALDYVINQNNSSNSPISGLVDTSRLGAMGWSMGGGGSLRLASGDRLSAVIPLAPWNEGSRGFRQLETPTLVIACERDLIAPVGVHASPFYNAIPSTTDKAFLEVNNGSHSCANGGGINGGLLSKYGVSWMKRFIDNDTRYQQFLCGPNHAANPAISEYRDTCNY | not clears the plate
unnamed (protein) MFPYVAVRVTEETNSRRTTLSNKAATRVSFNRQETDVKFKFVKTALVAAAMACSASAFAQYQKGPDPTTSSLERAGSFATRTLNVSSLSASGFGGGRIWYPTASGSYGVVAVSPGFTGTASTMYFWGERLSSHGFVVIVIETNTLYDQPDSRARQLTSALNYVVSQGNSRTSALYGKVDGNRRAVAGHSMGGGGTLIAAADNPSLKAAIPMAPWNLSSLSFSRIRVPTFIFSCQSDAIAPVAQHSNPFYNAIPSTTSKNLVEMRLDDHFCVMNGGGHYETLGKLGIAWVKRFVDQDTRYSKFLCGNEYNSTVRSTEVSSNRNNCPY | not clears the plate
unnamed (protein) MKGIRTRVLPVGKKNTGVKMRCAWRRRVSAFTQSAILHNTHSQETPVMSDPRLSVARLAWAGILLMGAASATCQAQTNPFERGPDPTSSLLNASAGPLATASVAVASPTGFGGGTIYYPTAANTYGVIALCPGFTGTQSSVAWLGSRLASHGFVVVTMNTNSSLDFPASRATQLMAALNHVINNSNATVKSRIDPNRRAVGGHSMGGGGSLIAAQNNPSLKGAYPLTPWNTSTNFSGVGVPTMIIGADGDTTAPVGSHARPFYASLPAATLKAYGELNGATHSTPTSTNTPTGRYAVSWMKRFVDTDTRYSPFLCGAEHTSYATATVFDRYQQNCPY | not clears the plate
unnamed (protein) MISTRRFPMRRLAIGLVFVFAAVLGACDWRGPTPTEQLLTASTGPFTVSTLAVPTSAGFGGGTIYYPSTTPGPFAVVSLSPGFTESQSAIAGWGPRLASHGFVTIIINTSNPFIDPSQRSTEQRQALTYVVTQGQTSGSPIFGKVDGQRRGVGGHSMGGGASLISAQADPTIRAVMPMAPWNSSASFPGITSPTLILACQNDGIAPVGSHASPMYNSIPASTKKEYISVAGGDHSCANAPTGGGSAVGKFGVAFLKRFLDNDGRYDPWTCGASKPVAGGSLSEVRSTCPF | not clears the plate
unnamed (protein) MKSQFRKKIKKAKLESALKVFGAFMFASAISTPAAFAINPGGNSDGNSDAGCNSNCSLGIDPTSEMLEKEQGPYVIDYIDIPKSVAGFAGGRIHFPKGLDQRLGLVVIGPGFLYTDESSSRWLGPRLASNGFVTVNINFNTVMDQPDMRANQYDKALDYVIKLSKDSSSPLYGLVDENRLGAAGWSMGGGAALKLSNMRPLKAIMPWAPWYIPAGAFSSVQTPSLIIACKGDIIAPEGIHASAFYNVIPDSTPKEYVKFAKGNHWCSNNRSNYKPLIGKLSIAWFKRFMDEDNRYEKFICDGDIKDESGVAEFRDNCGSWK | not clears the plate
unnamed (protein) MPSADEPDAGTAPPPEPGSNHWERGPEPTAESASMPGPYQVESLTAELPDRVEYLSQTLWYPTDAEPPFAGFAIVPGFVSPEGSIAEWGPFLASHGIVVLTIGTNTGGDLPDVRALALAAAVEVLKGEHTRSGSPLEGSMDTDRMAVGGWSMGGGGTLLAIAADPSLKAGIGLTPWHIGALPFTEISVPTLMFAGTADVLAGGMSQGFYDAIPASTPKTLFEILGADHFYSNNPLLPNIEVGRYGLSWLKVFLEGDERYRQFLSVEPMGASDFRTTAP | not clears the plate
unnamed (protein) MNSNRTVPLRRAAIAVVLALTLVACDWKGPAPTDASLTAASGPFAVSTLAVPSSAGFGGGTIYYPSNVDGPFAAISVSPGFFSTQSAIAAWGPRLASHGFVVITINTTSLLADPTQRSTEQRQALAHVVNQGNTASSPIFGLVDGNRTGVAGHSMGGGASLISAQADPSIDAAMPFAPWNLGTNFAGITSPTLVLACQADGVAAPNSMASPMYNSIPATTKKMYLSVTNGDHSCANAPTGGNNDVGRYGVAFFKRWLDSDTRYDPWMCGASAPTAGGALNEVRSTCPF | not clears the plate
unnamed (protein) MASRQSKTRLTRRAKLTALAAATLLSFAAQAQTVIFSENFGSGLGQFTTSGTVSTSSGAAVIQGCYNCTDGAIVSKSISTVGYTGLKLSYDRSTTGLDSGEYGVSAYLVSGGAWTAIENITSSSGRVTLTLPAAVENQASVQLRFRVSSSLSTETLTVDNVVLEGTSASGGGGGGAGYEKGPNPTNAALEASAGPFTVATKAVSASSASGYGGGTIYYPTNVTGTLGAVVVIPGYTAYQSSVSWWGSRLASHGFVVMTIDTNSIYDLPPARATQLMAAVNQLKVFNATAGHVIQGKIDTTRMGIMGWSYGGGGTLIAARDNPSLKAAIPFAPKTTTGTDFSGITMPTLIIGCESDSTAPVSSWSIPFYNSIPAAVKKAYLEVNNGDHFCPTTSGPSSVKPILGKYGVSWMKRWLDNDTRYSTFLCGSPHTTDLGNTAVISEYRDNCPY | not clears the plate
